Experimental findings from patent publication US20230167179A1 (CENTRE NATIONAL DE LA RECHERCHE SCIENTIFIQUE, published 2023) are described below.

As usually defined, the Kd is a measure of binding affinity in units of concentration. As usually defined, the koff is the rate constant with which the complex falls apart. As usually defined, the kon is the rate constant with which the complex forms.

The target of test [1] is recombinant IL-1RA (Homo sapiens (Human)) (UniProt P18510). As to the kind of experiment: Octet BLI, biotinylated antibody on streptavidin biosensor, IL-1RA at 22.2 nM.
Test [2] shares this target. As to the kind of experiment: Octet BLI, biotinylated antibody on streptavidin biosensor, IL-1RA at 9.87 nM. On the technique in general: Biolayer interferometry detects binding as a change in optical thickness at a sensor tip.
Test [3] has the same target. As to the kind of experiment: Octet BLI, biotinylated antibody on streptavidin biosensor, IL-1RA at 50 nM.
Test [4] shares this target. Briefly: Octet BLI, biotinylated antibody on streptavidin biosensor, IL-1RA in solution, 1:1 fit.
Test [5] has the same target. As to the kind of experiment: Octet BLI, biotinylated antibody on streptavidin biosensor, IL-1RA at 33.3 nM.
The target is the same in test [6]. Briefly: Octet BLI, comparison of KD.
Test [7] shares this target. Briefly: Octet BLI, biotinylated antibody on streptavidin biosensor, IL-1RA at 14.8 nM.
Test [8] addresses T1, recombinant IL-1RA (Homo sapiens (Human), UniProt P18510 26-177).
T1 construct: also called IL-1RA antigen; IL-RA
As to the kind of experiment: Octet BLI, biotinylated antibody on streptavidin biosensor, IL-1RA at 3.55 nM. The procedure: (§1) This antigen was tested at 12 nM at the first point, then diluted 1.5 times on 6 points for the first 4 antibodies.

Test [9] deals with T1, recombinant IL-1RA. Briefly: Octet BLI, biotinylated antibody on streptavidin biosensor, IL-1RA at 2.37 nM. Here is the method:
as §1

Test [10] addresses T1, recombinant IL-1RA. Briefly: Octet BLI, biotinylated antibody on streptavidin biosensor, IL-1RA at 5.33 nM. Here is the method:
as §1

Test [11] addresses T1, recombinant IL-1RA. Briefly: Octet BLI, biotinylated antibody on streptavidin biosensor, IL-1RA in solution, 1:1 fit over 4 concentrations. Here is the method:
as §1
For each antibody, 4 concentrations were used to calculate the KD. The constant KD is related to the rate of complex formation (described by the rate constant of association, kon) and the rate of dissociation (described by the rate constant of dissociation, kdis), with KD=kdis/kon. A high affinity interaction is characterized by a low KD, rapid recognition (high kon) and stability of the complexes formed (low kdis). The R2 makes it possible to estimate the reliability of the results obtained (the closer it is to 1, the more reliable the results).

Sequence of recombinant IL-1RA (Homo sapiens (Human)) (P18510 26-177): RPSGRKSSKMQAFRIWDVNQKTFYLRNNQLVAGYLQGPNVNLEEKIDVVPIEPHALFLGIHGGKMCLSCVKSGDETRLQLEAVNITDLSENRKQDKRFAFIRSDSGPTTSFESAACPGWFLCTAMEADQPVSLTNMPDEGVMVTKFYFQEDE
T1 sequence (P18510 26-177): as above

Regarding “anti-IL-1RA antibody MAB280 from R&D Systems”, the Response in test [1] came out at 0.105; in test [2] it was 0.0638; in [3] it was 0.151; in test [5], 0.121; in test [7], 0.0761. In addition, the Kd in [4] came out at 50.8 nM. In [4], the koff was 0.00718 s⁻¹. The association rate constant (kon) in test [4] was 142000 M⁻¹ s⁻¹. Besides, the fold lower affinity than the antibodies selected in examples 2, 3 in [6] is over 10 times.

B1: 908.9E11B6 (antibody, IgG1, V domains shown)
VH: QVQLKESGPGLVAPSQSLSITCTVSGFSLTSYGVHWVRQPPGKGLEWLGVIWAGGVTHYNSALMSRLNISKDNSQSQVFLKMNSLRTDDTAMYYCARGGALLRSHFDYWGQGTTLTVSS
VL: QAVVTQESALTTSPGETVTLTCRSSTGAVTTSNYANWVQEKPDHLFTGLIGGTNNRAPGVPARFSGSLIGDKAALTITGAQTEDEAIYHCALWYSNLWVFGGRTKLTVL
For B1, the Response in test [8] worked out at 0.154; in test [9] it was 0.101; in test [10], 0.229. Also, the Kd in [11] came out at 4.86 nM. Further, the koff in [11] is 0.000865 s⁻¹. For the same molecule, in test [11], the kon was found to be 178000 M⁻¹ s⁻¹.

B2: 908.9G5B9 (antibody, V domains shown)
VH: EVQLQQSGAELVKPGASVKLSCTVSGFNITDTYIHWVKQRPEKGLEWIGRIDPANGNTKYDPKLQGKATITADTSSNTAYLQLSSLTSEDTAVYYCARDGTYVYYAMDYWGQGTSVTVSS
VL: DIQMTQSPASLSASVGETVTITCRASENIFIYLAWYQQKQGKSPQLLVYNAKTLAEGVPSRFSGSGSGTQFSLKINSLLPEDFGSYYCQHHYGIPFTFGSGTKLEIE
notes: Biotinylated in the Octet assay; fixed (capture) antibody in the sandwich ELISAs
Take B2: the results for the Response in test [8], in test [9] and in test [10] were 0.132, 0.092 and 0.2, respectively. For the same molecule, in [11], the Kd came out at 3.84 nM. Further, in test [11], the koff amounted to 0.00131 s⁻¹. For the same molecule, the kon in test [11] was found to be 342000 M⁻¹ s⁻¹.

B3: 908.10E12C1 (antibody, IgG1, V domains shown)
VH: EVQLQQSGPELVKPGASVKISCKTSGYTFTEYTMHWVKQSHGKSLEWIGSINPNNGGTNYNQKFKGKATLTVDKSSNTAYMELRSLTSGDSAVYYCARTLYYAMDYWGQGTSVTVSS
VL: DIVMTQSPSSLAMSVGQKVTMSCKSSQSLLNSSNQKNYLAWYQQKPRQSPKLLVYFASTRDSGVPDRFLGSGSGTDFTLTINRVQAEDLADYFCQQHYILPPTFGAGTKLELK
For the molecule B3, the Response in [8] was determined as 0.15. For the same molecule, the Response in test [9] worked out at 0.107. In test [10], the Response turned out to be 0.21. Further, in test [11], the Kd was found to be 1.76 nM, the koff worked out at 0.000464 s⁻¹ and the kon worked out at 264000 M⁻¹ s⁻¹.
